These results are taken from PMC5921579.

Substrate in this series: O=P(O)(O)O[C@@H]1[C@H](O)[C@H](O)[C@@H](OP(=O)(O)O)[C@H](OP(=O)(O)O)[C@H]1O
Put plainly: ADP luciferase assay, nonlinear regression. The format is biochemical, Trypanosoma brucei. Particulars: 200 µM ATP, 2 mM MgCl2, 20 mM HEPES, 150 mM NaCl, pH 7.5, 37°C.

What is called Vmax is the rate approached at saturating substrate. A word on the kcat/Km: it is the second-order rate constant that governs catalysis at low substrate concentration.

B1: T. brucei IPMK (rIPMK, rTbIPMK) (Trypanosoma brucei brucei TREU927) (protein)
chain: MLNICQNLSSVAKPDLIVVSGHKCNIQRGPQTSIGTPTITKRVTAWEALIYLEMLLAEDEAFAILATFVPPLVALLPPENFASDNWVYVHDPASRPLLKSIFAQLKQMSADTHGYNEVMDTTRWEIILVDVTATFHKPCVLDIKLGYVRHSPHTLPDKVERIHKRQLRRSQPIRFCGAHHQFCRQNNDIGECFELEEFTKDMGYALETEESHRRALRSFFTTASLMTTSNTNETTIIDDRHAMARSRCCRQRVQKLVDFLKGHLGQMLLERIAFVSASLLIVYDATGCCGRNVTVSEGINSMNDMVNVYLIDFSRSGDRRLHFPEEVVGFVQGLEKIIFLLS
For B1, the Km was 61.41 (±15.37) µM, the Vmax amounted to 617 µmol/min/mg and the kcat/Km was 167000 M⁻¹ s⁻¹.
